One sequence from patent publication US20250027114 can be followed below.

Series [1] relates to T1, N1-21-ABE8e (Neisseria meningitidis).
T1 sequence: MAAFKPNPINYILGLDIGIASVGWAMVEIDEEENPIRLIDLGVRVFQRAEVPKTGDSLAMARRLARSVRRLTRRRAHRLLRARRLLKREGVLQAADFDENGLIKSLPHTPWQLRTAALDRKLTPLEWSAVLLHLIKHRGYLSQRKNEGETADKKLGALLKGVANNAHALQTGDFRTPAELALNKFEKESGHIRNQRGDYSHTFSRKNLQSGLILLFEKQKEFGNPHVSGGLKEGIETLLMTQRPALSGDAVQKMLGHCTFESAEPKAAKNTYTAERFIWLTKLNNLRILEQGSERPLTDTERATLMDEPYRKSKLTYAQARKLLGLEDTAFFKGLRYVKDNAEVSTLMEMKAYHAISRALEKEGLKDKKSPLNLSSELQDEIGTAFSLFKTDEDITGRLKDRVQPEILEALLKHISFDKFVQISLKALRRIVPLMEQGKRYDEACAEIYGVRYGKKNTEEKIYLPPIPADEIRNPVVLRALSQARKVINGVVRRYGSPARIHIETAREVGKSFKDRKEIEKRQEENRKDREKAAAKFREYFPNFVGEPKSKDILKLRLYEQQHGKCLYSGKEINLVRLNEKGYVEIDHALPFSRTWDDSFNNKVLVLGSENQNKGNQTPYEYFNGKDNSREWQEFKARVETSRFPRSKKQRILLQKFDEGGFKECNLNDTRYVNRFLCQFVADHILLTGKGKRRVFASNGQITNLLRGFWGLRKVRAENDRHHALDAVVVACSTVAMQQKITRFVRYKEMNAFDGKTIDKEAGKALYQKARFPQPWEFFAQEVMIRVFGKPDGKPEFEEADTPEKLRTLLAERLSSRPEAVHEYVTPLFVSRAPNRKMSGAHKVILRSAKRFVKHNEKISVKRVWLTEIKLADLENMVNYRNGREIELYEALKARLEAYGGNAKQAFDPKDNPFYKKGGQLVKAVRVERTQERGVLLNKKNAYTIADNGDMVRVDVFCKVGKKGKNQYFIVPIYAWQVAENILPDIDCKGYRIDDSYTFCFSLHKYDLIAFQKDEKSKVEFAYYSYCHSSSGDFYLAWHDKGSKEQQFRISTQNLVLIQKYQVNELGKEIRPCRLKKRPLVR
The experiment in a line: cell_activity. As to conditions: E. coli ABE-PPA.

Series [2] concerns T2, E3-18-ABE8e (Neisseria meningitidis).
T2 sequence: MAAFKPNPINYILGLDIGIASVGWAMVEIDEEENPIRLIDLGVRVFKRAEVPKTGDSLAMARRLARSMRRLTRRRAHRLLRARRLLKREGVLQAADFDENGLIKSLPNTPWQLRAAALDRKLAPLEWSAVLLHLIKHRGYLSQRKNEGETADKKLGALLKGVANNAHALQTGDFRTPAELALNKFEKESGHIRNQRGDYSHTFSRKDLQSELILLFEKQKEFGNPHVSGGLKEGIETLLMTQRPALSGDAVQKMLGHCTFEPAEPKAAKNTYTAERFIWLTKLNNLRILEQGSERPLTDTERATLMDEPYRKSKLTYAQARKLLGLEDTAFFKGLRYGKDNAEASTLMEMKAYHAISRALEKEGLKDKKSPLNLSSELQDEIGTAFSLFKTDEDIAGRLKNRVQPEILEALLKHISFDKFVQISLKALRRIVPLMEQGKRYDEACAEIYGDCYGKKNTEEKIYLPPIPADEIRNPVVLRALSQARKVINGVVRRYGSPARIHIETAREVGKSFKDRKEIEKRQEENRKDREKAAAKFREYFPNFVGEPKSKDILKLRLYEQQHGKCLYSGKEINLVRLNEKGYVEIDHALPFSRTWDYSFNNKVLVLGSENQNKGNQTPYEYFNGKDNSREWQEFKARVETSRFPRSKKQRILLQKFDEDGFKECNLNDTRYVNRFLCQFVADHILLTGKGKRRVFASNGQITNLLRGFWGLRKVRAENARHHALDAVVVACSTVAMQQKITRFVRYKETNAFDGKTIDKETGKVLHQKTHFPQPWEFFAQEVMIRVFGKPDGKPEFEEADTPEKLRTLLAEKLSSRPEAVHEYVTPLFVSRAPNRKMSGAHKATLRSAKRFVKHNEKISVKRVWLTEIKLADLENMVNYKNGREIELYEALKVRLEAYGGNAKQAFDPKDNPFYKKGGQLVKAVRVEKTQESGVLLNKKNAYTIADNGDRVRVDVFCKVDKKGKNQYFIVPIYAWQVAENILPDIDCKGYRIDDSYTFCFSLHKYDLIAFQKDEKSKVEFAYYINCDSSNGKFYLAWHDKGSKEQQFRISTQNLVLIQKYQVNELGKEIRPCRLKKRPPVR
The experiment in a line: cell_activity. Particulars: PAM N4YNC average, E. coli ABE-PPA; 33% on N4YND.

For “AUGGCCCAGACUGAGCACGUGAGGUUGUAGCUCCCUUUCUCAUUUCGGAAACGAAAUGAGAACCGUUGCUACAAUAAGGCCGUCUGAAAAGAUGUGCCGCAACGCUCUGCCCCUUAAAGCUUCUGCUUUAAGGGGCAUCGUUUA / ATGGCCCAGACTGAGCACGTGA / TCACGTGCTCAGTCTGGGCCAT [ABE-PPA sgRNA ; ABE-PPA protospacer library target]”, the activity (% A-to-G conversion) in series [1] (PAM N3CCC (counterselected), virtually eliminated) turned out to be 4.8; in series [1] (PAM N3TTG, 64% average on N4GN PAMs), 67; in series [2], 61.
